Experimental data as given in patent publication US9878046B2, “Adverse side-effects associated with administration of an anti-hyaluronan agent and methods for ameliorating or preventing the side-effects” (Halozyme, Inc., priority 2010, dated 2018).

Experiments:
[1] = Dexamethasone premedication and PEGPH20-induced musculoskeletal observations
Procedure: In one study, four naïve male beagle dogs were orally dosed with 4 mg/dose dexamethasone twice a day on the day of PEGPH20 administration. The first dexamethasone dose was given orally (PO) immediately before PEGPH20 intravenous (IV) administration. The second dexamethasone dose was given orally ˜8 hours later. On day 1, one dog was dosed with 3040 U/kg (0.08 mg/kg) PEGPH20 after Dexamethasone. Twenty four hours later (day 2), a second dog was dosed with 5700 U/kg (0.15 mg/kg) PEGPH20 after Dexamethasone. Twenty four hours later (day 3), a third dog was dosed with 11400 U/kg (0.3 mg/kg) PEGPH20 after Dexamethasone. Twenty four hours later (day 4), a fourth dog was dosed with 38000 U/kg (1.0 mg/kg) PEGPH20 after Dexamethasone. Blood was collected pre-PEGPH20 administration, and 0.5 hr, 4 h and 24 h post-PEGPH20 administration.
PEGPH20 was administered IV with a 5 mL bolus injection via percutaneous needle puncture of the cephalic vein on study Days 1, 2 and/or 5. Dexamethasone was administered orally immediately before the PEGPH20 injection and approximately 8 hours post injection. All animals were re-dosed 3 days after the first injection except those in the PEGPH20 alone treatment group, which were not re-dosed.
Animals treated with only one dose of PEGPH20 were evaluated at 96 hours, 120 hours, 6, 7, 8, and 9 days post-dose.

[2] = test system: PC3 prostate carcinoma cell line; test: Antitumor activity in PC3 prostate cancer xenograft model; type: in vivo, human (xenograft in athymic male nude mice); design: key to % TGI (% Tumor Growth Inhibition): TR = Tumor Regression
Procedure: Tumor cells from the PC3 prostate carcinoma cell line were grown to approximately 80% confluency then trypsinized, collected, washed once in HBSS (Hank's balance salt solution, Mediatech Inc.), then re-suspended in 50% Matrigel® in HBSS at 2×10^7 cells/mL on ice before inoculation into animals. Athymic male nude mice (Nu/Nu (Ncr); Taconic Farms; average weight ˜20 g) were inoculated intramuscularly (IM) with 0.05 mL of this cell suspension, peritibially, in the left hind leg (adjacent to the tibia periosteum). The implants in the animals were assessed twice a week and allowed to grow to a mean tumor volume of approximately 500 mm^3 (Day −2; Table 12). Actual tumor volumes were determined using VisualSonics Vevo 770 high-resolution ultrasound, using two perpendicular axial dimensions.
Animals were sorted randomly and grouped into 6 groups of 8 mice per group (6+2 satellite mice). Treatment groups were vehicle (API buffer), PEGPH20 (157,500 Units/kg, 4.5 mg/kg), low dose dexamethasone (1.25 mg/kg), high dose dexamethasone (5 mg/kg), PEGPH20 (4.5 mg/kg)+low dose dexamethasone (1.25 mg/kg) and PEGPH20 (4.5 mg/kg)+high dose dexamethasone (5 mg/kg). The dose and frequency of the PEGPH20 (or vehicle) intravenous injections was 157,500 Units/kg or approximately 4.5 mg/kg, every 3rd day starting on Day 0 (Days 0, 3, 6, 9, 12) with a total of 5 injections (Q3Dx5) with a dose volume of 0.1 mL. This dosing and frequency regimen was previously shown to inhibit xenograft tumor growth by 34-70%. The doses and frequency of the dexamethasone intraperitonal injections were 1.25 mg/kg at the low dose and 5 mg/kg at the high dose, once a day until Day 13 (QDx13) with a dose volume of 0.1 mL.
The tumor volumes of all mice were measured pre-treatment on Day −2 (average tumor volume of ˜500 mm^3) and on Day 1, 6, 9, 13, 16 and 20 by capturing images using the VisualSonic ultrasound system and using an ultrasound imaging software program to calculate tumor volume (Table 12).

[3] = test system: BxPC3 pancreatic cancer cell line; test: Antitumor activity in BxPC3 pancreatic cancer xenograft model; type: in vivo, human (xenograft in athymic female nude mice)
Procedure: Tumor cells from the BxPC3 pancreatic cancer cell line were grown to approximately 80% confluency, trypsinized, collected, washed once in HBSS (Hank's balance salt solution, Mediatech Inc.), and re-suspended in 50% Matrigel in HBSS at 2×10^7 cells/mL on ice before inoculation into animals. Athymic female nude mice (average weight ˜20 g) were inoculated intramuscularly (IM) with 0.05 mL of cell suspension, peritibially, in the left hind leg (adjacent to the tibia periosteum). The tumors in the animals were assessed twice a week and allowed to grow to a mean tumor volume of approximately 250 mm^3 (Day −1; Table 13). Actual tumor volumes were determined using VisualSonics Vevo 770 high-resolution ultrasound.
The animals were randomly grouped into 6 groups of 8 animals per group (6+2 satellite mice) and treated with vehicle (API buffer), PEGPH20 (157,500 Units/kg, 4.5 mg/kg), low dose dexamethasone (1.25 mg/kg), high dose dexamethasone (5 mg/kg), PEGPH20 (4.5 mg/kg)+low dose dexamethasone (1.25 mg/kg) and PEGPH20 (4.5 mg/kg)+high dose dexamethasone (5 mg/kg). The dose and frequency of the PEGPH20 (or vehicle) intravenous injections was 157,500 Units/kg or approximately 4.5 mg/kg, on Days 0, 3, 7, 10, 13 and 17 for a total of 6 injections starting on Day 0 (dose volume of 0.1 mL). The doses and frequency of the dexamethasone intraperitonal injections was 1.25 mg/kg at the low dose and 5 mg/kg at the high dose, once a day until Day 17 (QDx17) with a dose volume of 0.1 mL.
The tumor volumes of all mice were measured pre-treatment on Days −4 and −1 (mean tumor volume of ˜250 mm^3) and on Days 4, 7, 11, 14 and 17 by capturing images using the VisualSonic ultrasound system and using an ultrasound imaging software program to calculate the tumor volume (Table 13). The percent tumor growth inhibition (% TGI) was calculated as described above in Example 9A.

pericellular hyaluronan = test: Hyaluronan staining of PC3 tumor sections; type: in vivo, human (xenograft in athymic male nude mice); settings: Day 14, dexamethasone low or high dose, PEGPH20 4.5 mg/kg, or both
Procedure: Tumor tissues from the two satellite mice from all 6 treatment groups in Example 9A.1 above, were harvested by tissue biopsy on Day 14 and stained for the presence of hyaluronan. Tumor biopsies were fixed in 10% NBF for 48 hours, embedded in paraffin, and sectioned. Samples were probed for hyaluronan using a biotinylated HA-binding protein (HABP), then probed with FITC-labeled streptavidin for detection. The cell nuclei were counterstained with DAPI (4′,6-diamidino-2-phenylindole) reagent. Micrographs were then captured using a Zeiss Microscope (Thornwood, N.Y.) coupled with the Spot imaging program (Diagnostic Instruments, Inc).
Hyaluronan expression in the sections was evaluated by the level of green fluorescent intensity in the sections.

[4] = test system: 46 different cytokines, chemokines, acute-phase reactants, and other plasma inflammatory biomarkers; test: Human inflammation multi-analyte profile (MAP) of patient plasma; type: in vivo; settings: first two patients, single IV dose 0.05 mg/kg
Procedure: The patient plasma samples also were analyzed using a human inflammation multi-analyte profile (MAP) of 46 different cytokines, chemokines, acute-phase reactants, and other plasma inflammatory biomarkers.

B1: PEGPH20 (protein)
chain: LNFRAPPVIPNVPFLWAWNAPSEFCLGKFDEPLDMSLFSFIGSPRINATGQGVTIFYVDRLGYYPYIDSITGVTVNGGIPQKISLQDHLDKAKKDITFYMPVDNLGMAVIDWEEWRPTWARNWKPKDVYKNRSIELVQQQNVQLSLTEATEKAKQEFEKAGKDFLVETIKLGKLLRPNHLWGYYLFPDCYNHHYKKPGYNGSCFNVEIKRNDDLSWLWNESTALYPSIYLNTQQSPVAATLYVRNRVREAIRVSKIPDAKSPLPVFAYTRIVFTDQVLKFLSQDELVYTFGETVALGASGIVIWGTLSIMRSMKSCLLLDNYMETILNPYIINVTLAAKMCSQVLCQEQGVCIRKNWNSSDYLHLNPDNFAIQLEKGGKFTVRGKPTLEDLEQFSEKFYCSCYSTLSCKEKADVKDTDAVDVCIADGVCIDAFLKPPMETEEPQIFY
- complete resolution of musculoskeletal observations post-dose ([1]; PEGPH20 0.3 mg/kg IV alone): approximately 72 hours
- onset of musculoskeletal observations post-dose ([1]; PEGPH20 0.3 mg/kg IV alone): approximately 10 hours
- musculoskeletal observations ([1]; PEGPH20 11400 Units/kg (0.3 mg/kg) IV alone): moderate to severe musculoskeletal observations
- Tumor volume ([2]; Day 1, PEGPH20 4.5 mg/kg IV Q3Dx5 and/or dexamethasone 1.25 mg/kg IP QDx13): 394.38 mm^3
- % TGI (% Tumor Growth Inhibition) ([2]; Day 1, PEGPH20 4.5 mg/kg alone or + dexamethasone 1.25 mg/kg): TR
- Tumor volume ([2]; Day 6, PEGPH20 4.5 mg/kg IV Q3Dx5 and/or dexamethasone 1.25 mg/kg IP QDx13): 598.39 mm^3
- % TGI (% Tumor Growth Inhibition) ([2]; Day 6, PEGPH20 4.5 mg/kg alone or + dexamethasone 1.25 mg/kg): 71%
- Tumor volume ([2]; Day 9, PEGPH20 4.5 mg/kg IV Q3Dx5 and/or dexamethasone 1.25 mg/kg IP QDx13): 674.83 mm^3
- % TGI (% Tumor Growth Inhibition) ([2]; Day 9, PEGPH20 4.5 mg/kg alone or + dexamethasone 1.25 mg/kg): 64%
- Tumor volume ([2]; Day 13, PEGPH20 4.5 mg/kg IV Q3Dx5 and/or dexamethasone 1.25 mg/kg IP QDx13): 827.53 mm^3
- % TGI (% Tumor Growth Inhibition) ([2]; Day 13, PEGPH20 4.5 mg/kg alone or + dexamethasone 1.25 mg/kg): 56%
- Tumor volume ([2]; Day 16, PEGPH20 4.5 mg/kg IV Q3Dx5 and/or dexamethasone 1.25 mg/kg IP QDx13): 1046.73 mm^3
- % TGI (% Tumor Growth Inhibition) ([2]; Day 16, PEGPH20 4.5 mg/kg alone or + dexamethasone 1.25 mg/kg): 47%
- Tumor volume ([2]; Day 20, PEGPH20 4.5 mg/kg IV Q3Dx5 and/or dexamethasone 1.25 mg/kg IP QDx13): 1310.85 mm^3
- % TGI (% Tumor Growth Inhibition) ([2]; Day 20, PEGPH20 4.5 mg/kg alone): 41%
- Tumor volume ([2]; Day −2 (pre-treatment), PEGPH20 4.5 mg/kg IV Q3Dx5 and/or dexamethasone 1.25 mg/kg IP QDx13): 491.10 mm^3
- Tumor volume ([3]; Day 4, PEGPH20 4.5 mg/kg IV x6 and/or dexamethasone 1.25 mg/kg IP QDx17): 350.44 mm^3
- % TGI (% Tumor Growth Inhibition) ([3]; Day 4, PEGPH20 4.5 mg/kg alone or + dexamethasone 1.25 mg/kg): 68%
- Tumor volume ([3]; Day 7, PEGPH20 4.5 mg/kg IV x6 and/or dexamethasone 1.25 mg/kg IP QDx17): 394.40 mm^3
- % TGI (% Tumor Growth Inhibition) ([3]; Day 7, PEGPH20 4.5 mg/kg alone or + dexamethasone 1.25 mg/kg): 63%
- Tumor volume ([3]; Day 11, PEGPH20 4.5 mg/kg IV x6 and/or dexamethasone 1.25 mg/kg IP QDx17): 473.50 mm^3
- % TGI (% Tumor Growth Inhibition) ([3]; Day 11, PEGPH20 4.5 mg/kg alone or + dexamethasone 1.25 mg/kg): 60%
- Tumor volume ([3]; Day 14, PEGPH20 4.5 mg/kg IV x6 and/or dexamethasone 1.25 mg/kg IP QDx17): 596.96 mm^3
- % TGI (% Tumor Growth Inhibition) ([3]; Day 14, PEGPH20 4.5 mg/kg alone or + dexamethasone 1.25 mg/kg): 54%
- Tumor volume ([3]; Day 17, PEGPH20 4.5 mg/kg IV x6 and/or dexamethasone 1.25 mg/kg IP QDx17): 790.16 mm^3
- % TGI (% Tumor Growth Inhibition) ([3]; Day 17, PEGPH20 4.5 mg/kg alone or + dexamethasone 1.25 mg/kg): 48%
- Tumor volume ([3]; Day −1 (pre-treatment), PEGPH20 4.5 mg/kg IV x6 and/or dexamethasone 1.25 mg/kg IP QDx17): 275.75 mm^3
- Tumor volume ([3]; Day −4 (pre-treatment), PEGPH20 4.5 mg/kg IV x6 and/or dexamethasone 1.25 mg/kg IP QDx17): 196.87 mm^3
- pericellular hyaluronan staining of tumor sections (pericellular hyaluronan): almost completely absent
- inflammation MAP findings [4]: No notable findings
